Source: patent US7790398B2, “Method for determining effective parathormone activity in a sample” (priority 2001, dated 2010)

B1: PTH: parathyroid hormone, single polypeptide chain of 84 amino acids, endogenous in plasma samples of dialysis patients (protein, UniProt P01270 32-115, looked up)
Parathyroid hormone: SVSEIQLMHNLGKHLNSMERVEWLRKKLQDVHNFVALGAPLAPRDAGSQRPRKKEDNVLVESHEKSLGEADKADVNVLTKAKSQ
modifications: Parathyroid hormone
notes: parathyroid hormone, single polypeptide chain of 84 amino acids, endogenous in plasma samples of dialysis patients

Assays:
[1] = test system: captor antibody against the N-terminal PTH fragment (anti-hPTH(1-34)); experiment: Spiking experiments with hPTH(1-37) fragments, Nichols IRMA intact PTH test; type: binding, goat; conditions: 1000 pM hPTH(1-37) added
Protocol: The Nichols Intact PTH Assay (Nichols Institute, San Juan Capistrano, Calif., U.S.A) is a double binding immunoradiometry assay (IRMA) with two polyclonal goat antibodies. […] The second detection antibody, marked with ^125Iodine, recognizes an epitope in the N-terminal section of the PTH (anti-hPTH(1-34)). The sample was incubated at the same time with the antibody coated beads and the ^125Iodine marked detection antibody overnight (12±2 h) at room temperature. After the incubation, the beads were washed and the radioactivity adhering to the solid phase measured in a gamma counter (LKB1277 Gamma Master from Perkin-Elmer). The dose measurement curve (MultiCalc Software) between bound radioactivity and concentration in the sample was determined strictly in accordance with the manufacturer's instructions via a standard measured at the same time. […]
The standard sample and the plasma pools where in each case treated with three different concentrations of hPTH(1-37) fragments in five different oxidation and state forms and then the recovered PTH contents determined. […]
There were produced from each fragment solution three initial concentrations (1000 nM, 100 nM and 10 nM). A further dilution of the fragment solutions 1:100 in the standard and in the pool plasma yielded final concentrations of […] in the sample to be analyzed. […]

[2] = test system: captor antibody used in the Roche Elecsys 2010 PTH test; experiment: Oxidation and reduction of plasma samples, measured with Roche Elecsys 2010 PTH test
Protocol: The Roche Elecsys™ PTH assay is an electrochemiluminescence immunoassay (ECLIA) on the fully automatic immunoanalyzer Elecsys ^R2010. The epitope recognized by the biotinylated captor antibody contains the PTH amino acids 26 to 32 and the monoclonal ruthenium detection antibody recognizes, in accordance with the information from the manufacturer, an epitope in the region of the PTH amino acids 55 to 64. Sample and antibodies were incubated together for 9 minutes at 37° C., Streptavidin coated paramagnetic beads introduced to the incubation mixture, and finally incubated for further 9 minutes. After magnetic separation of the bonded conjugates from the free conjugates on an electrode surface the luminescence was determined and the end PTH concentration determined via a recalibrated master curve. The interassay variance in the lower and upper normal region was less than 7% CV and in the high concentration region 5% CV.
(§1) 30 plasma samples of dialysis patients and ESRD patients (ESRD=end stage renal disease) were selected at random and oxidized with hydrogen peroxide (30%; end concentration: 1.5 Mol/L) or reduced with sodium boron hydride (NaBH4, aqueous solution of 100 nMol/L). All samples, treated and untreated, where measured at the same time with the Roche Elecsys™2010 and the Nichols IRMA test.
(§2) The oxidation was effected with 30% hydrogen peroxide solution. The hydrogen peroxide concentration in the incubation preparation was at 17% of the 30% solution. All samples were incubated for 45 minutes at 37° C., then also cooled down to −70° C., lyophilized and stored at −20° C. until the quantitative PTH determination.
Of 20 samples an aliquot of each in the ratio 1:1 (v/v) was treated and reduced with a 100 nMol NaBH4 solution. Further, of 10 oxidized samples in each case an aliquot was reverse reduced by the addition of a 100 nMol NaBH4 solution in the ratio 1:1. The samples were incubated for 45 minutes at room temperature and the reaction stopped on dry ice. After the lyophilization the samples were deep frozen at −20° C. until determination. The diagrams of FIGS. 5 to 11 show the results.

[3] = test system: polyclonal antibodies employed in the Nichols test; experiment: Oxidation and reduction of plasma samples, measured with Nichols IRMA; set-up: species or system goat; conditions: H2O2 oxidation
Protocol: The Nichols Intact PTH Assay (Nichols Institute, San Juan Capistrano, Calif., U.S.A) is a double binding immunoradiometry assay (IRMA) with two polyclonal goat antibodies. The captor antibody, immobilized in plastic beads, binds only in the middle or C-terminal section of the hPTH (anti-hPTH(39-89)). The second detection antibody, marked with ^125Iodine, recognizes an epitope in the N-terminal section of the PTH (anti-hPTH(1-34)). The sample was incubated at the same time with the antibody coated beads and the ^125Iodine marked detection antibody overnight (12±2 h) at room temperature. After the incubation, the beads were washed and the radioactivity adhering to the solid phase measured in a gamma counter (LKB1277 Gamma Master from Perkin-Elmer). The dose measurement curve (MultiCalc Software) between bound radioactivity and concentration in the sample was determined strictly in accordance with the manufacturer's instructions via a standard measured at the same time. The interassay variance in the normal and increased region was less than 10% CV.
as §1, §2
Of 20 samples an aliquot of each in the ratio 1:1 (v/v) was treated and reduced with a 100 nMol NaBH4 solution. Further, of 10 oxidized samples in each case an aliquot was reverse reduced by the addition of a 100 nMol NaBH4 solution in the ratio 1:1. […]

[4] = H2O2 oxidation, individual samples

Molecule	signal reduction to % of the native measured sample [1] [%]	measurement value after oxidation, average, of the initial value ([2]; H2O2 oxidation, 45 minutes at 37° C., plasma of dialysis and ESRD patients) [%]	highest remaining measurement signal after oxidation, % of initial value [2, 4] [%]	lowest remaining measurement signal after oxidation, % of initial value [2, 4] [%]	measurement value after oxidation and reverse reduction, of the initial value ([2]; H2O2 then NaBH4)	concentration after oxidation, average, of the initial value [3] [%]	highest remaining concentration after oxidation, % of initial value (smallest reduction) ([3]; individual samples) [%]	lowest remaining concentration after oxidation, % of initial value (largest reduction) ([3]; individual samples) [%]
hPTH(1-37): native hPTH(1-37) fragment of human parathyroid hormone, from IPF or Immundiagnostik AG (SVSEIQLMHNLGKHLNSMERVEWLRKKLQDVHNFVAL; Parathyroid hormone; UniProt P01270 32-68, looked up, fragment)	50							
B1		29	53	10	ca. 50%	76	98	33
